Among the data in patent publication US20120324602A1 are C-GS (times co-purified) and N-GS (times co-purified) values, retold here.

The target of test [1] is T1, SE (SERRATE) (Arabidopsis thaliana).
T1 sequence (Q9ZVD0 1-720, looked up): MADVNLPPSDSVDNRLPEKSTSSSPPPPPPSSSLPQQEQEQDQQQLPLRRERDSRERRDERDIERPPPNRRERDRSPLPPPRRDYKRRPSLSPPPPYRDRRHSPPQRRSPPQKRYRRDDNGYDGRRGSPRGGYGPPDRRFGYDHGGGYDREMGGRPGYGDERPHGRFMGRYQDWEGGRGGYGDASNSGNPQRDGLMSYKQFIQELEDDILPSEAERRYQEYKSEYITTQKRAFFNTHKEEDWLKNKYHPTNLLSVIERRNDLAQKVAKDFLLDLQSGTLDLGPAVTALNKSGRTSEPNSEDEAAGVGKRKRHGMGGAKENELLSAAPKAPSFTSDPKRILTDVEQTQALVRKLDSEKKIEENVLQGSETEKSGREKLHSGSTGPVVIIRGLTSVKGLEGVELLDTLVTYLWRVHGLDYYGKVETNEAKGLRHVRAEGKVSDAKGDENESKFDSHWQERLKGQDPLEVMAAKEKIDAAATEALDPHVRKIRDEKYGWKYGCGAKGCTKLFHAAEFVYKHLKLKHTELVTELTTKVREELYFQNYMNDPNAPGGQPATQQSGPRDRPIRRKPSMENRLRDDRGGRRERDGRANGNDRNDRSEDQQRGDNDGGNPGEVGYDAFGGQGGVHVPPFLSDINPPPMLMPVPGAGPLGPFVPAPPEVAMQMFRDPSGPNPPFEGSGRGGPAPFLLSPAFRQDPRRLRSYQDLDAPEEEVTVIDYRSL
As to the kind of experiment: TAP-MS, C-terminal GS tag.

In test [2] the target is T2, actin-related protein 7 (ARP7) (Arabidopsis thaliana).
T2 sequence (Q8L4Y5 1-363, looked up): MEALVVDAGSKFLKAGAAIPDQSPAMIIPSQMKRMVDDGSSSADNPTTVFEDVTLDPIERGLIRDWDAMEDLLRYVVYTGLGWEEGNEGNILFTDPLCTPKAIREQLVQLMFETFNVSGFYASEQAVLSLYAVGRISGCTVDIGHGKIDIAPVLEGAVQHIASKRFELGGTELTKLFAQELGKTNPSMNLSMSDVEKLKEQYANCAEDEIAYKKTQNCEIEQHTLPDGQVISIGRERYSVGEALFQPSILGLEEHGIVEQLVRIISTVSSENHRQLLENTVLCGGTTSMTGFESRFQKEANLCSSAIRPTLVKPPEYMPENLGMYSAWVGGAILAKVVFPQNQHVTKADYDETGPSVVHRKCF
As to the kind of experiment: TAP-MS, C-terminal GS tag.

The target in test [3] is SNF2 protein (BRM) (Arabidopsis thaliana). In words: TAP-MS, C-terminal GS tag.
The target in test [4] is unknown protein, similar to At5g17510 (AT3G03460) (Arabidopsis thaliana). In words: TAP-MS, C-terminal GS tag.
Test [5] has as its target expressed protein, similar to At4g22320 (AT5G55210) (Arabidopsis thaliana). As to the kind of experiment: TAP-MS, C-terminal GS tag.
For test [6], the target named is expressed protein, similar to At3g03460 (AT5G17510) (Arabidopsis thaliana). As to the kind of experiment: TAP-MS, C-terminal GS tag.
Test [7] addresses DNA-binding bromodomain-containing protein (AT1G20670) (Arabidopsis thaliana). In words: TAP-MS, C-terminal GS tag.
The target of test [8] is DNA-binding bromodomain-containing protein, similar to At1g20670 (AT1G76380) (Arabidopsis thaliana). In words: TAP-MS, C-terminal GS tag.
In test [9] the target is T3, SWIRM domain-containing protein (SWI3C) (Arabidopsis thaliana).
T3 sequence (Q9XI07 1-807, looked up): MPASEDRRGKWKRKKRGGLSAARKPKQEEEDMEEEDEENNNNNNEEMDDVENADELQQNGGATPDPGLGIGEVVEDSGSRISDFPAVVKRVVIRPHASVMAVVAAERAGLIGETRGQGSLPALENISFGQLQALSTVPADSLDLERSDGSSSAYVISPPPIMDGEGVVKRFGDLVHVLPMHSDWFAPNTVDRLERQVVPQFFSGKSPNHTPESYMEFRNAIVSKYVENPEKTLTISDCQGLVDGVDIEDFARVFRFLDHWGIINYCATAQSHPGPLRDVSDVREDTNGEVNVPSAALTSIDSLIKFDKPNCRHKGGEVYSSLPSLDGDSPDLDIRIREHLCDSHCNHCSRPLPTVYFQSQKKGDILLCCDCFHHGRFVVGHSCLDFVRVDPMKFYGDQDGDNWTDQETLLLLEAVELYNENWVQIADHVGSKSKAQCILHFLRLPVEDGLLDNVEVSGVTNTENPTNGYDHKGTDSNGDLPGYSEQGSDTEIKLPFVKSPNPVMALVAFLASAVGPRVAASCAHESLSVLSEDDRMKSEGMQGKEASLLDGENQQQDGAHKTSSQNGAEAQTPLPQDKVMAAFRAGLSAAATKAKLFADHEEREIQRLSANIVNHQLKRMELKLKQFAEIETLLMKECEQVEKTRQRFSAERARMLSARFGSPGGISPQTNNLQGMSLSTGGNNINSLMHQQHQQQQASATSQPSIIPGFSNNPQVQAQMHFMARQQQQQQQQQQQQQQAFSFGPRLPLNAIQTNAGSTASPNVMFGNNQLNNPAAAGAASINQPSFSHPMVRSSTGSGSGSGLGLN
As to the kind of experiment: TAP-MS, C-terminal GS tag.

In test [10] the target is RD21 (RESPONSIVE TO …ON 21) (Arabidopsis thaliana). As to the kind of experiment: TAP-MS, C-terminal GS tag.
For test [11], the target named is DNA-binding bromodomain-containing protein, similar to At1g20670 (AT5G55040) (Arabidopsis thaliana). In words: TAP-MS, C-terminal GS tag.
For test [12], the target named is SWIB complex BAF60b domain-containing protein (Swp73B) (Arabidopsis thaliana). As to the kind of experiment: TAP-MS, C-terminal GS tag.
Test [13] addresses Swp73A (Arabidopsis thaliana). As to the kind of experiment: TAP-MS, C-terminal GS tag.
Test [14] has as its target T2, actin-related protein 7 (ARP7) (Arabidopsis thaliana). In words: TAP-MS, N-terminal GS tag.
In test [15] the target is T4, GAD (Glutamate decarboxylase); calmodulin binding (Arabidopsis thaliana).
T4 sequence (Q42521 1-502, looked up): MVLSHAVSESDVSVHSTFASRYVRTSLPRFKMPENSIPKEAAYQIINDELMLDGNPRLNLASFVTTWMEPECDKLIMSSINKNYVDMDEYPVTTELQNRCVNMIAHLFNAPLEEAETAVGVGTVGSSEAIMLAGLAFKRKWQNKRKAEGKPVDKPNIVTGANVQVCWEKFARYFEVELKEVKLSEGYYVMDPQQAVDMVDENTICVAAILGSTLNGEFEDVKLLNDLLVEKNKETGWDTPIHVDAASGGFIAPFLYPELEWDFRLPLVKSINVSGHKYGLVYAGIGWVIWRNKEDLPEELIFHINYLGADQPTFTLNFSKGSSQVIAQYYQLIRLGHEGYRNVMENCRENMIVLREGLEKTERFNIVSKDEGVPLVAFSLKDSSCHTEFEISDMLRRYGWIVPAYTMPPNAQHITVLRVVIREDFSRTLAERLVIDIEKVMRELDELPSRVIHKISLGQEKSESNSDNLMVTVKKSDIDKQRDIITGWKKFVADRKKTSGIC
As to the kind of experiment: TAP-MS, N-terminal GS tag.

The target in test [16] is SNF2 protein (BRM) (Arabidopsis thaliana). As to the kind of experiment: TAP-MS, N-terminal GS tag.
In test [17] the target is G2484-1, agenet domain-containing protein (Arabidopsis thaliana). As to the kind of experiment: TAP-MS, N-terminal GS tag.
Test [18] deals with PTAC17 (PLASTID …ONALLY ACTIVE17) (Arabidopsis thaliana). In words: TAP-MS, N-terminal GS tag.
In test [19] the target is T5, ATASE (Gln Phosphoribosyl Pyrophospate Amidotransferase 1) (Arabidopsis thaliana).
T5 sequence (Q9SI61 59-566, looked up): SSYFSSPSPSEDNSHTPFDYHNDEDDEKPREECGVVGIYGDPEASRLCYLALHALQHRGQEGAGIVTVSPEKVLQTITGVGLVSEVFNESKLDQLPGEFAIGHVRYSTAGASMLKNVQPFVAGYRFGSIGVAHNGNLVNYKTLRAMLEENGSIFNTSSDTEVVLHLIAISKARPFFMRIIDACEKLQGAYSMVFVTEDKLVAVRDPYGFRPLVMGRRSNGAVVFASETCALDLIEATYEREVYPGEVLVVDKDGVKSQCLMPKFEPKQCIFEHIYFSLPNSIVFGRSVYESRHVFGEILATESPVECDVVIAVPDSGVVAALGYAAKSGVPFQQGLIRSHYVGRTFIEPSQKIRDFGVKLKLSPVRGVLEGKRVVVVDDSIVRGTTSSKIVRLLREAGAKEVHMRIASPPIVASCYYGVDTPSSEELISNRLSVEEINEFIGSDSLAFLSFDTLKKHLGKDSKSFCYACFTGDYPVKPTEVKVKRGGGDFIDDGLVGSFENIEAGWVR
As to the kind of experiment: TAP-MS, N-terminal GS tag.

Test [20] has as its target expressed protein, similar to DAG protein (AT3G15000) (Arabidopsis thaliana). As to the kind of experiment: TAP-MS, N-terminal GS tag.
For test [21], the target named is importin alpha-2 (IMPA2) (Arabidopsis thaliana). In words: TAP-MS, N-terminal GS tag.
The target in test [22] is acyl-(acyl-carrier-protein) desaturase (AT1G43800) (Arabidopsis thaliana). In words: TAP-MS, N-terminal GS tag.
Test [23] concerns the target chromatin remodeling protein (SYD) (Arabidopsis thaliana). In words: TAP-MS, N-terminal GS tag.

B1: ARP4-GS (protein, UniProt Q84M92 1-441, looked up)
Actin-related protein 4: MYGGDEVSAIVVDLGSHTCKAGYAGEDAPKAVFPSVIGAVDGVEAMDVDVDSTKTNSNSEDSKTESEKEKSKRKLYVGSQAMSYRRDHMEVLSPIKDGIVSDWDLVDNIWEHAFKSCLMIDPTEHPMLLAEPPLNTQQQREKAAELMFEKYKVPALFMAKNPVLTSFATGRATSLVVDCGGGSTTISPVHDGYVLQKAVVSSPLGGEFLTDCLLKSLESKGIKIRPRYSFKRKEVRAGEFQVEDVDIPDTTESYKLFCQRMIVGDIKDSICRVPDTPYDDKSYSNIPTTSYELPDGQTLEIGADRFKVPDVMFNPSIVQTIPGMEKYAEMIPSVRGLPHMVMESINKCDVDIRRELYSSILLAGGTSSMQQLKERLEKDLIEESPHSARVKVLASGNTTERRFSVWIGGSILASLGSFQQMWFSKSEYEEHGASYIQRKCP
modifications: C-terminal GS tag
As for B1, the C-GS (times co-purified) in test [1] amounted to 1; in test [2] it was 2; in test [3], 2; in test [4], 1; in test [5] it was 1; in test [6], 2. The C-GS (times co-purified) in [7] was determined as 2; in [8], 2; in test [9], 2; in test [10], 2; in test [11] it was 1; in test [12], 2. This molecule returned a C-GS (times co-purified) in test [13] of 2.

B2: GS-AN3 (protein, UniProt Q8L8A5 1-210, looked up)
GRF1-interacting factor 1: MQQHLMQMQPMMAGYYPSNVTSDHIQQYLDENKSLILKIVESQNSGKLSECAENQARLQRNLMYLAAIADSQPQPPSVHSQYGSAGGGMIQGEGGSHYLQQQQATQQQQMTQQSLMAARSSMLYAQQQQQQQPYATLQHQQLHHSQLGMSSSSGGGGSSGLHILQGEAGGFHDFGRGKPEMGSGGGGEGRGGSSGDGGETLYLKSSDDGN
modifications: N-terminal GS tag
Turning to B2, the N-GS (times co-purified) in [14] is 3; in test [15], 1; in [16], 2; in test [17] it was 2; in test [18], 1; in test [19], 2. For the same molecule, the N-GS (times co-purified) was 3 in test [20], 1 in test [21], 1 in test [22] and 4 in test [23].
